According to paper PMC4605657, “Interaction between TATA-Binding Protein (TBP) and Multiprotein Bridging Factor-1 (MBF1) from the Filamentous Insect Pathogenic Fungus Beauveria bassiana”:

B1: TATA0 (dsDNA)
DNA 1: CAGTAAAAGCTTGGTAGTATTTCTTCTCTCTTTCAC
DNA 2: GTGAAAGAGAGAAGAAATACTACCAAGCTTTTACTG
B2: TATAC (dsDNA)
DNA 1: CAGTAAAAGCTTGGTAGTATTTATATCTTCTCTCTTTCAC
DNA 2: GTGAAAGAGAGAAGATATAAATACTACCAAGCTTTTACTG
B3: TATAP (dsDNA)
DNA 1: GGAGCGGCATATGTCAAGTATAAAGAGCGGAATGTTTTTC
DNA 2: GAAAAACATTCCGCTCTTTATACTTGACATATGCCGCTCC

Biological target: BbMBF1 (multiprotein bridging factor 1) (Beauveria bassiana, UniProt J4WFU2 1-153)
Test: EMSA; Binding buffer (4 ul in 20 ul reaction): 60 mM KCl, 20 mM Tris pH 7.9, 5 mM MgCl2, 10 mM DTT, 0.2 mg/ml BSA, 10% glycerol; 30 min at 37 C; 6% non-denaturing PAGE
Conditions: protein: recombinant; tags: 6xHis (C-terminal; pET28a, thrombin site); blunt

Binder | binding result
B1 | no binding
B2 | no binding
B3 | no binding
